From patent US20250282876A1, “STABLE Fc FRAGMENTS, CONJUGATES, COMPOSITIONS, AND METHODS OF USE” (PURDUE RESEARCH FOUNDATION, priority 2022, published 2025)

What was measured:
[1] = molecular target: His-tagged human FcγR variant CD32b (human) (UniProt P31994); experiment: BLI (Octet HTX), His-tagged FcγR on anti-Penta-HIS biosensors, Fc in solution, 1:1 fit
[2] = molecular target: His-tagged human FcγR variant CD32b (human) (UniProt P31994); experiment: BLI (Octet HTX), His-tagged FcγR on anti-Penta-HIS biosensors, 1:1 fit; * denotes weak binding/inaccurate KD

Kd [1]	Kd [2]	Substance
0.00134 µM	–	IgG1-CH2-CH3-DLE mutant (Ser239Asp/Ala330Leu/Ile332Glu), monomeric Fc fragment (from UniProt P0DOX5 218-449)
–	3.76 µM	IgG1-CH2-CH3-WT, wild-type Fc region of human IgG1 (from UniProt P0DOX5 218-449)
